# From the nanobody polyreactivity screen of Harvey et al. (2022)
# Assay: yeast display, Sf9 membrane polyspecificity reagent, FACS + sequencing; frameworks hold sequencing errors
# Method in brief: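 A nanobody's polyreactivity label depends on the gate it was sorted from. Yeast display cells were stained with 10% biotinylated, detergent-solubilized Sf9 membrane reagent for 1 hour at 4 °C, enriched on streptavidin microbeads and sorted by FACS. The low and high (top ~1%) gates were set on anti-HA fluorescence for expression and streptavidin fluorescence for reagent binding.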
row,Sequence,polyreactivity (PSR sort gate)
1,QVQLVESGGGLVQAGGSLRVICAPSGSTFGVYAMGWYRQAPGKERDLVAAISDTGGSTYYADSVKGRFTISRDNAKTTVYLQMNSLKPEDTAVYYCAVEVGYTDSPYSYDYWGHGTQVTVSS,low polyreactivity
2,QVQLVESGGGLVQAGGSLRLSCAASGLIFPPNAMGWYRQAPGKERELVASITRSGVSTNYADSVKGRFTISRDNAKNTVYLQMNSLKPEDTAVYYCAAVIYSTYTIPNDEMGYWGHGTQVTVSS,low polyreactivity
3,QVQLVESGGGLVQAGGSLRLSCAASGRTFWYYAMGWYRPAPGKERELVASISLSGSRTNYADSVKGRFTIARDNAKNTVYLQINRLKPEDTAVYYCAADNFRQFGEYDYLGQGTQVTVSS,low polyreactivity
4,QVQLLESGGGLFQAGGILRLSCAASGLIFWSNAMGWYRKEPGKERELVAAISRRGGRTYYADSVKGRFTISRDNAKNTVYVQMNSLKPEDSALYYCNADLYFLTFGYDYWGQGTQVTVSS,high polyreactivity
5,QVQLVDSGRGLVQAGGSLRLSCASSGSTFRDYAMGWYRQAPGKETELVAVITWNGGSTYYADSVKGRFTISRDNAKNTVYLEMNSLKPEDTAVYYCGAVYPRSLSTEYYYWGQGTQVTVSS,high polyreactivity
6,QVQLVESGGGLVQAGGSLRLSCAASGSTLGYYTMGWYIQAPGKERELVAAITRSGGSTYYADSVKGRFTISRDNAKNTVYLQMNSLKPEDTAVYYCAARSYQGTSSGRVTRRYDYWGQGTQVTVSS,high polyreactivity
7,QVQLVESGGGLDQAGGSLRLSCAASGLTFQLYTMGWYRQAHGKERELVAAISRSGTRTYYADSVKGRFTISLDNAKNTVYLQMNSLKPEDTAVYYCAARTDGYRNNYWGQGTQVTVSS,high polyreactivity
8,QVQLVESGGGLVQAGGSLRLSCAASGRTFTFYTMGCYRQSPGKERELVAAITRSGGGTYYADSVKGRFTISRDNAKNTVYLQMNSLKPEDTAVYYCAAYNRNAFHWGQGTQVTVSS,high polyreactivity
9,QVQLVESGGRLVQAGGSLRLSCAASGRIFRYYTMGWYRQAPGKERELVAAITRRGGITNYADSVKGRFTISRDNAKNTVYLQTNSLKPEDTAVYYCAAKYVSQGYDYWGQGTQVTVSS,high polyreactivity
10,QVQLVVSGGGLVQAGGSLRLSCAASGRTFPRYAMGWYRQAPGKERELVASISRRGGSTYYADSVKGRFTISRDNAKNTVYLQMNSLKPEDTAVYYCNAQGYPYKQSTGDFWGQGTQVTVSS,high polyreactivity
11,QVQLVESGGGLVQAGGSIRLSCAASGFISYYYAMGWYRQAPGKERELVAAITKSGGSTYYADSVKGRFTISRDNAKNTVYLQMNSLKPEDTAVDYCAAVRSTRNSTSRLYGYWGQGTQVNVSS,low polyreactivity
12,QVQLVESGGGLVQAGGSLRLSCAASGITFVRNAMGWYRQAPGKEREFVAAISRSGTTTYYADSVKGRFTISRDNAKNTVYLQMNSLKPEETAVYYCAAVRWVRYRTSAYEYWGQGTQVTVSS,high polyreactivity
13,QVHIVDSCGGLVKAGGSLRLSSAASGSIFHPYTMVWYRQAPGKEMELVAGISQSTDSTYYADSLKGRFTISRDYAKTTVYFQMISLKPEDTAVYYCNRVYDLPLSVVEVDYWGQGTQVTVSS,low polyreactivity
14,QVQLVESGRGLLQAGGSLRISCAASGFTFKGNAMGWYRQAPGKESELVAAITTSGGSTYYADSVKWRFTISRDNAKNTVYLQMNSLKPEDTAVYYCNAYFIYEGGWYYNAQYDYWGQGTQVTVSS,low polyreactivity
15,QVQLVESGGGLVQAGGSLRLSCAASGRTFNSYAMGWYRQAPGKEWELVASISSGGSTYYADSVKGRFTLSRDNAKNTDYLQMNSLKPEDTAVYYCAAKSVAYYSYFRRDYWGQGTQVTVSS,low polyreactivity
16,QVQLVESGGGLVQAGGSLRLSCAASGLTFVFYAMGWYRQAPGNERELVAAISWSTGRTYYADSVKGRFTISRDNAKNTVYLQMNSLKPEDTAVYYCAASYLGRKYDYWGQGTQVTVSS,high polyreactivity
17,QVQLVESGGCLVQAGGSLGLSCAASGFSFLEYAKGWYRQAPGKERELVAVISRRGGRTYYADSVKGRFTISRDNAKITVFLQMNSLNPEDTEVYYWNARISGCVWHYDYWGQGTQVTVSS,high polyreactivity
18,QVQLVESGGGLVQAGGSLRLSCAASGSTFRVYAMGWYRQAPGKERELVAGITQTSGRTYYADSVKGRFTISRDNAKNTVYLQMNSLKPEDTAVYYCARESYSSYFHYYYWGQGTQVTVSS,high polyreactivity
19,QDQLVESGGGLVQAGGSLRLSCAASGSTFTFYVMGWYRQAPGKERELVAAITASGGSTYYADSVKGRFTISRDNAKNTVYLQMNSLKPEDTAVYYCAARPTYYYSRTYDYWGQGTQVTVSS,low polyreactivity
20,QVQLVDSGGGLVQAGGRLRISSAASGRISQGNAMGWYRQAPGKERELVAGISRSGGSTYYADSVKGRFTISRDNAKKTVYLQMNSLKPEDTAVYYCAARYYWRGYYWGQGTQVTVSS,high polyreactivity
21,QVQLVESGGGLVQAGGSLRLSCAASGSTFDGNAMGWYRQAPGKERELVAAITYTTSSTYYADSVKGRFTISRDNAKNTVYLQMTSLKPEDTAVYYWGQGTQVTVSS,low polyreactivity
22,QVQLVESGGLLVQAGGSLRLSCAASGFIFNQYAMGWDRQAPAKVREFVAGISWSGGATYYADSVKGRFTISRDNAKNTVYLQMNSLKPEETAVYYCAADRTYSFYYTQGYEYWGQGTHVTVSS,low polyreactivity

row,Sequence,polyreactivity (PSR sort gate)
1,QVQLVESGGGLVHAGGSHRLSCAASGRTFPGYPMGWYIPAPGTERELVAGISYRGGSTYFADSVKGRFTISRDNAKNTVYLQMNSLKPEDTAVYFCARDYSRHKGDYWGQGTQGTVSS,low polyreactivity
2,QVQLVESGGGLVQAGGSLRLSCAASGRTFRPYAMGWYRQAPGKERELVAAISQSVGSTYYADSVKGRFTISRDNAKNTVYLQMNSLKPEDTAVYYCAADRWSATHYVWYDYWGQGTQVTVSS,high polyreactivity
3,QVQLVESVGGLVQAGGSLRLSCAASGRIFGFSTMGWYRQARGKDRELVATISWSGSGTYYADSVKGRFTISRDNAYNTVYLQMNRLKPEDTAVYYCNADWYYFGYDYWGQGTQVTVST,low polyreactivity
4,QVQLVESGGGLVQAGGSLRLSCAASGFTFDHYAMGWYRQAPGKERELVARITGTGDSTYYADSVKGRFTISRDNAKNTVYLQRNSLKPEDTAVDYCNADRRYDFYDGYGYWGQGTQVTVSS,low polyreactivity
5,QVQHVESGGGLVQAGGSLRLSCAASGRIFLHNAMGWYRQAPGKERELVAAITGGGSTYYADSVKGRFTISRDNAKNTVYLQMNSLKPEDTAVYYCATLGSLRYYWPGYDYWGQGTQVTVSS,low polyreactivity
6,QVQLVESGGGLVQAGGSLRLSCAASGSTIAFYDMGWYRQAPGKEREMVAAISQSDGDTYYADSVKGRFTISRDNAKNTVYLQMNSLKPEDTAVYYCARPSFTSGYQSYDYWGQGTQVTVSS,low polyreactivity
7,QVQLVESGGGLVQAGGSLRLRCAASGLIFITYAMGRYRQAPGKERELVATITLRGGSTYYADSVKGRFTISRDNAKNTVYLQMNSLKPEDTAVYYCNADSIYYGYDYWGQGTQVTVSS,low polyreactivity
8,QVQLVESGGGLVQAGGSLRLSCAASGSIFRGYAMGCYRQAPGKERELVAAITSGGSTNYADSVKGRFTISRDNAKNTVYLQMNSLKPEDTAVYYCAKDLALVAPLSDYWGQGTQVTVSS,low polyreactivity
9,QVQLVESGGGLVQAGGSLRLSCAASGYIFVFNTMGWYRQAPGKERELVASISWDAGSTYYADSVKGRFTISRDNAKNTVYLQMNSLKPEDTAVDYCNAGRIRSGSPDYWGQGTQVTVSS,low polyreactivity
10,QVQLVESGGGLVQAGGSLRLSCAASGSTNGRYAMGWYRQAPGKERELVAAISYSGGSTYYADTVKGRFTISRDNAKNTVYLQMNSLKPEDTAVYYCAAQYVRKYRVSRGYNYWGQGTQVTVSS,high polyreactivity
11,QVQLVESGGGLVQAGGSLRLSCAASGSIFSGYVMGWYRQAPGKERELVAAISGSGGSTYYADSVKGRFTISRDNAKNTVYLQMNSLKPEDTAVYYCNKGLSRSYWWVDYWGQGTQVTVSS,low polyreactivity
12,QVQLVESGGGIVQAGRSLRLTCAASGITFKAYTMGWYRQAPGKERELVATISRGGRTYADSVKGRFTISRDNAKNTVYLQINSLKPEDTAVYYCAADKYWAQNDYWGQGTQVTVSS,low polyreactivity
13,QVQLVESAGGLVQAGGSLRLSCAASGSNFGDYPLGWYRQAPGKERELVAAISVRGGSTYYADSVKGRFTISRDNAKITVYLQMKSLKPEDTAVYYCNKDLYRYPGYDYWGHGTQVTVSS,high polyreactivity
14,QVQHVESGGGLVQAGGSLRLSCAASGSIFYYYAMGWYRQAPGKERELVATISSSSGSTYADSVKGRFTISRDNAKNTVYLQMNSLKPEDTAVYYCAKDYWGQGTKVTVSS,low polyreactivity
15,QGQLVESGGGLVQAGGSLRLSCAASGSIFIGNAMGWYRQAPGKERELVAAITGRGGRTYYADSVKGRFSISRDNAKNTVYLQMNSLKPVDTAVYDCNARSGSSYSGYYYWGQGTQVTVSS,high polyreactivity
16,QVQLVESGGGLVQAGGRLRFSCAASGSTFVNNAMGWYRQAPGKERELVAAISRRGGRTYYADSEKGRFTISRDNAKNTVYLQMKSLKPEDTAVYYCAADESRYDYWGQGTQVTVSS,high polyreactivity
17,QVQLVESGGGLVQAGGSLRLSCAASGRIFANYAMGWYRQAPGKERELVAAIYWSDDDTYYADSVKGRFTISRDNAKNTVYFQMNRLIPEDTAVYYCAADGRYGWYYGVYNGEDYWGQGTQVTVSS,high polyreactivity
18,QVQLVESGGGLVQAGGSLRLSCAASGSTFAANAMGWYRQAPGKERELVAALTRSGGSTYYADSVKGRFTISRDNAKNTVYLQMNSLKPEDTAVYYCASKYHTRGVQHGYWGQGTQVTVSS,low polyreactivity
19,QVQLVESGGGLVQAGGSLRLSCAASGLIFYYYAMGWYRQAPGKEREVVAAISSNGGSTYYADSVKGRFTISRDNAKNTVYLQMNSLKPEDTAVYYCAAGYAYYYWTPYYYWGQGTQVTVSS,high polyreactivity
20,QVHLVESGGGLVQAGGSLRLSCDASGLTFANNAMGWYRQAPGKEREFVAAIRGSGGSTYYADSVKGRFTISRDNAKNTVYLQMNSLKPEDTAVYYCNAGYLRKYHGWFQVKFDYWGQGTQVTVSS,low polyreactivity
21,QVQHVQSGGGLVQAGGSLPLSCDASASIFKYYTMGWYRQAPGKERELVATINFSGASTYYADSVKGRFTISRDNAKNTVYLQINSLKPEDTAVYYCAAVSSSTYRYYYWGQGTQVTVSS,high polyreactivity
